Experimental data published in US11505586B2, “Interaction of Draxin and γ-netrins” (Max-Planck-Gesellschaft zur Foerderung der Wissenschaften …, priority 2014, dated 2022).

Tests used:
endogenous netrins = assay: In situ detection of Draxin binding partners with affinity probe; set-up: species or system zebrafish
Experimental: A netrin binding fragment of Draxin (aa209-284) fused to the Fc region of human IgG (Draxinaa209-284-hFc) has been expressed in HEK293-6E cells and used as an affinity probe to detect binding partners in zebrafish embryos. Draxinaa209-284-hFc in situ staining has been done in whole mount wild type and netrin-1 knockdown zebrafish embryos. At 46 hpf wild type zebrafish embryos were dechorionated by for 2 hours at RT incubation in 0.1 mg/ml Pronase. At 48 hpf embryos were prefixed for 10 min at RT in 4% (w/v) paraformaldehyde (PFA) containing 1% Triton X-100 (v/v). After 3 washes (each 20 min) with PBS+1% Triton X-100 the embryos were blocked for 4 h at RT in PBS containing 0.2% BSA and 0.5% Triton X-100. Overnight incubation at 4° C. with HEK293-6E supernatant containing the Draxin-hFc fusion protein was followed by 3 short washes (10 min each) with PBST. Subsequently the embryos were post-fixed in 4% PFA (4 h at RT or overnight at 4° C.), rinsed shortly 3 times with PBST and incubated for 4 h at RT with an Alexa Fluor 568 goat anti human IgG antibody (Invitrogen, 1:250 dilution). After 3 washes (30 min each) in PBST the embryos were mounted in glycerol for visualization using a Zeiss LSM 510 microscope. […]

Netrin1a/DCC = assay: AVEXIS based competition assay; format: binding, zebrafish; conditions: for inhibition of binding of Netrin1a to DCC: inhibitor added together with DCC prey, Netrin1a bait
Description: (§1) The procedure of the competition assay is based on the AVEXIS assay. Netrin1 receptors were used as prey proteins together with 6×His ? tagged purified Draxin (potential antagonist), and probed against Netrin1a bait proteins. The indicated concentrations of the potential inhibitors have been added together with prey proteins. For the competition tests with purified Draxin the concentration of the Netrin receptor prey proteins has been adjusted to an identical threshold binding concentration.
We determined the concentration of ECD-hFc fusion proteins in tissue culture supernatants by ELISA, using the human IgG Fc fragment (Calbiochem) as a reference. Dilution series of the ECD-hFc containing supernatants have been incubated over night at 4° C. on 96 well Maxisorp plates (Nunc). After 3 PBS washes the plates were blocked with 0.5% BSA containing PBS (1 h). After additional 2 PBS washes and 1-hour incubation with an anti-human IgG (Fc specific) antibody fused to alkaline phosphatase (SIGMA) the plates have been washed 3 times with PBS. The detection has been carried out by addition of 50 μl/well of the AP substrate p-nitrophenylphosphate (SouthernBiotech). The substrate turnover has been determined by measuring the absorbance at 405 nm.
(§2) By using an AVEXIS-based competition assay (FIG. 6 A) we tested whether the binding of DraxinA to Netrin1a has an influence on Netrins ability to bind to Netrin receptors. First we confirmed that we reliably detected the binding of Netrin1a to Netrin receptors of the DCC/Neo1 and Unc5 families with the AVEXIS method. We also tested whether Draxin is able to bind to the corresponding Netrin receptors. […] This has also been confirmed by a recent publication (Haddick et al. 2014). In the competition assay the extracellular domains (ECDs) of Netrin receptors have been used as prey proteins together with purified full length DraxinA and probed for binding against Netrin1a bait proteins. […] The inhibition is specific for DraxinA.

Netrin1a = assay: AVEXIS extracellular protein-protein interaction screen; format: binding, zebrafish
Description: To detect extracellular protein-protein interactions in a high-throughput manner we used the AVEXIS assay as described in Bushell et al. (Bushell et al., 2008) with minor modifications.
In brief: A zebrafish protein library enriched for mainly in neuronal tissues expressed secreted proteins and extracellular domains of cell surface proteins has been assembled. The library consists of prey and bait proteins. Preys are composed of the extracellular domain (ECD) of interest followed by a CD4 tag (rat Cd4d3+4) and a pentamerization domain derived from the rat Comp protein followed by β-lactamase. For the bait proteins the ECDs are fused to a CD4 tag and a biotinylation peptide. […] The proteins in the supernatants have been quantified and normalized.
The bait proteins have been immobilized on streptavidin coated 96 well microtiter plates (one bait/well) and incubated for 1 hour at room temperature. […] Then the absorbance at 486 nm of each well has been measured using a μQuant spectrophotometer (BIO-TEK Instruments, INC). […]
In the primary screen interactions were ‘called’ if the absorbance (at 486 nm) of a well after 1 h of incubation was ≥0.1 and 3 Sigma above the standard deviations of the mean of all wells. All interactions detected in the primary screen have been retested in a validation screen by using independently produced batches of proteins.

Netrin1a/Neo1 = assay: AVEXIS based competition assay; format: binding, zebrafish; conditions: purified protein with Neo1 prey, Netrin1a bait
Description: as §1, §2

Netrin1a/Unc5b = assay: AVEXIS based competition assay; format: binding, zebrafish; conditions: purified protein with Unc5b prey, Netrin1a bait
Description: as §1, §2

RGMc/Neo1 = assay: AVEXIS based competition assay; format: binding, zebrafish
Netrin-1 = target: T1, Netrin-1 (Homo sapiens, UniProt O95631); assay: AVEXIS pairwise binding screen, human proteins; conditions: both bait/prey orientations
T1 construct: made in house; host or cells: HEK293-6E (general AVEXIS method)
Description: (§3) AVEXIS was used to test pairwise binding events in both bait/prey orientations between human DRAXIN, the derived 21 amino acid peptide, human Netrin family members, and two representative Netrin receptors (DCC, UNC5B). The Matn4-bait served as an internal prey-protein control and was used for normalization of the A486 nm values; conditioned medium (CM) serves as negative control; n=3.
(§4) To determine the binding specificity of DRAXIN/Netrin interactions, we carried out a pairwise binding screen between human DRAXIN and human Netrin family members. Except Netrin-5, we included all human Netrin family members consisting of two secreted γ-Netrins (Netrin-1 and Netrin-3) and one secreted (Netrin-4) and two GPI-linked β-Netrins (Netrin-G1 and Netrin-G2) in our binding study. Human DRAXIN and a 21 amino acid Netrin binding fragment derived thereof (SEQ ID NO.: 1) bound to Netrin-1 and Netrin-3 but not to human β-Netrin family members (FIG. 13).

Netrin-3 = target: T2, Netrin-3 (Homo sapiens, UniProt O00634); assay: AVEXIS pairwise binding screen, human proteins; conditions: both bait/prey orientations
T2 construct: made in house; host or cells: HEK293-6E (general AVEXIS method)
T2 sequence (O00634 28-580): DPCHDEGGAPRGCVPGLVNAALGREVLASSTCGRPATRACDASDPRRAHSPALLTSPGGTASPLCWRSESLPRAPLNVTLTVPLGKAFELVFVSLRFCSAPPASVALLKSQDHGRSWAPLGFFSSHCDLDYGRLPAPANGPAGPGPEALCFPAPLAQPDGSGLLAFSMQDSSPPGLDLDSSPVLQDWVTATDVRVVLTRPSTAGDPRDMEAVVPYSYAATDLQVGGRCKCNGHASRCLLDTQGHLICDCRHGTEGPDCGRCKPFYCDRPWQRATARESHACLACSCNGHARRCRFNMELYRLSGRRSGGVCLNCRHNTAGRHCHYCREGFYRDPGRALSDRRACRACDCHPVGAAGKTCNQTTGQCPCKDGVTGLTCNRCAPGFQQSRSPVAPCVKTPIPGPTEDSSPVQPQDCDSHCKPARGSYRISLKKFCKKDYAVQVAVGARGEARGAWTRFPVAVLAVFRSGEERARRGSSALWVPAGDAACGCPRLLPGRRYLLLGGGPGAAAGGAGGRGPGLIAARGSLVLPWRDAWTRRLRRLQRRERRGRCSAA
Description: as §3, §4

[1] = system: human β-Netrin family members; assay: AVEXIS pairwise binding screen, human proteins; conditions: Netrin-4, Netrin-G1, Netrin-G2
Description: as §3, §4

B1: Draxinaa209-284-hFc: netrin binding fragment of Draxin (aa209-284) fused to the Fc region of human IgG, affinity probe (protein)
chain: GHPPTLPPASTKPQKSSQGRTQGEVMPTLDMTLFDWTDYEDMKPADSWPSNKRKDKRRSKNKSNGNTTTEAGIVEP
modifications: left off: a dimerising Fc or GST
**Q.** What does the source list for B1?
**A.** in situ signal of bound affinity probe (endogenous netrins; 48 hpf netrin1a and netrin1b double-knockdown embryos): barely detectable; in situ signal of bound affinity probe (endogenous netrins; 48 hpf wild type embryos): only detect a signal in close proximity to the floor plate

B2: DraxinAΔaa231-252-hFc: DraxinA-hFc where the 21aa Netrin1 binding motif has been deleted (protein)
chain: SEISSDNFKQSLTPSTTTSKEHPETGLTGGRQQKRHWSGKERDSAGLFSQRHMDRLEDDGTSMEGLSPVRLEMGPGDTMKAEVHGEVRASAQMRQGSHPAEGELNRKGRRHSHRLLAEHRKHGGKKDKGRGKGDLSDPEPELDSLLKDLNAFEDGLNTSPPNYNSVPLNEVPSPLSPILVTTAIKGHPPTLPPASTKPQKSSQGRTQADSWPSNKRKDKRRSKNKSNGNTTTEAGIVEPCDHHLDCLSGSCCDLREFECKPHNRGLNNKCFDDCMCEEGLRCYAKFHRKRRVTRRRGRCVDPESVNSNQGAFITV
modifications: left off: a dimerising Fc or GST
**Q.** With B2 as the molecule, how does the “inhibition of binding of Netrin1a to DCC” value (Netrin1a/DCC) read?
**A.** Its value is “not able to compete”.

B3: DraxinA: full-length zebrafish Draxin isoform A (SEQ ID NO.: 5), 360 amino acids; purified as His-tagged CD4d3+4 fusion (protein)
chain: MVAPGLCQLFILLLITLSHTLHSSEISSDNFKQSLTPSTTTSKEHPETGLTGGRQQKRHWSGKERDSAGLFSQRHMDRLEDDGTSMEGLSPVRLEMGPGDTMKAEVHGEVRASAQMRQGSHPAEGELNRKGRRHSHRLLAEHRKHGGKKDKGRGKGDLSDPEPELDSLLKDLNAFEDGLNTSPPNYNSVPLNEVPSPLSPILVTTAIKGHPPTLPPASTKPQKSSQGRTQGEVMPTLDMTLFDWTDYEDMKPADSWPSNKRKDKRRSKNKSNGNTTTEAGIVEPCDHHLDCLSGSCCDLREFECKPHNRGLNNKCFDDCMCEEGLRCYAKFHRKRRVTRRRGRCVDPESVNSNQGAFITV
modifications: His-tagged CD4d3+4 fusion; Danio rerio
notes: purified as His-tagged CD4d3+4 fusion
**Q.** What does the source list for B3?
**A.** binding of prey protein to Netrin1a bait (Netrin1a; pentameric prey, library of 171 bait proteins): specifically bound; inhibition of binding of Netrin1a to Neo1 (Netrin1a/Neo1): concentration dependent inhibition; inhibition of binding of Netrin1a to Unc5b (Netrin1a/Unc5b): concentration dependent inhibition; disruption of already formed DCC/Netrin1a complexes (Netrin1a/DCC; Netrin1a-baits preincubated with DCC preys, then purified DraxinA added): can be disrupted; inhibition of binding of Netrin1a to DCC (Netrin1a/DCC): concentration dependent inhibition; inhibition of binding of RGMc to Neo1 (RGMc/Neo1): not able to block

B4: Human DRAXIN: human Draxin (SEQ ID NO.: 4) expressed as AVEXIS bait/prey protein (protein, listed as Homo sapiens)
chain: MAGPAIHTAPMLFLVLLLPLELSLAGALAPGTPARNLPENHIDLPGPALWTPQASHHRRRGPGKKEWGPGLPSQAQDGAVVTATRQASRLPEAEGLLPEQSPAGLLQDKDLLLGLALPYPEKENRPPGWERTRKRSREHKRRRDRLRLHQGRALVRGPSSLMKKAELSEAQVLDAAMEESSTSLAPTMFFLTTFEAAPATEESLILPVTSLRPQQAQPRSDGEVMPTLDMALFDWTDYEDLKPDGWPSAKKKEKHRGKLSSDGNETSPAEGEPCDHHQDCLPGTCCDLREHLCTPHNRGLNNKCFDDCMCVEGLRCYAKFHRNRRVTRRKGRCVEPETANGDQGSFINV
modifications: AVEXIS bait/prey tags
**Q.** How did the “binding of human Draxin to zebrafish Netrin1a” value (Netrin1a; cross-species, both bait-prey orientations) turn out when B4 was run?
**A.** The value was “able to bind”.

**Q.** What about the “binding to Netrin-1” value (Netrin-1) of the same molecule?
**A.** Its value is “bound”.

**Q.** What about the “binding to Netrin-3” value (Netrin-3) of the same molecule?
**A.** The value was “bound”.

**Q.** And the “binding to human β-Netrin family members” value [1]?
**A.** The value was “not”.

B5: DraxinA-hFc: full-length DraxinA fused to human Fc (protein)
chain: SEISSDNFKQSLTPSTTTSKEHPETGLTGGRQQKRHWSGKERDSAGLFSQRHMDRLEDDGTSMEGLSPVRLEMGPGDTMKAEVHGEVRASAQMRQGSHPAEGELNRKGRRHSHRLLAEHRKHGGKKDKGRGKGDLSDPEPELDSLLKDLNAFEDGLNTSPPNYNSVPLNEVPSPLSPILVTTAIKGHPPTLPPASTKPQKSSQGRTQGEVMPTLDMTLFDWTDYEDMKPADSWPSNKRKDKRRSKNKSNGNTTTEAGIVEPCDHHLDCLSGSCCDLREFECKPHNRGLNNKCFDDCMCEEGLRCYAKFHRKRRVTRRRGRCVDPESVNSNQGAFITV
modifications: left off: a dimerising Fc or GST
**Q.** With B5 as the molecule, how does the “inhibition of binding of Netrin1a to DCC” value (Netrin1a/DCC) read?
**A.** Its value is “able to outcompete”.
